Laboratory results taken from IntAct's records for PubMed 16418290.

B1: Caspase recruitment domain-containing protein 6 (Homo sapiens), Q9BX69 (parent)
chain: MATESTPSEIIERERKKLLEILQHDPDSILDTLTSRRLISEEEYETLENVTDLLKKSRKLLILVQKKGEATCQHFLKCLFSTFPQSAAICGLRHEVLKHENTVPPQSMGASSNSEDAFSPGIKQPEAPEITVFFSEKEHLDLETSEFFRDKKTSYRETALSARKNEKEYDTPEVTLSYSVEKVGCEVPATITYIKDGQRYEELDDSLYLGKEEYLGSVDTPEDAEATVEEEVYDDPEHVGYDGEEDFENSETTEFSGEEPSYEGSETSLSLEEEQEKSIEERKKVFKDVLLCLNMDRSRKVLPDFVKQFSLDRGCKWTPESPGDLAWNFLMKVQARDVTARDSILSHKVLDEDSKEDLLAGVENLEIRDIQTINPLDVLCATMLCSDSSLQRQVMSNMYQCQFALPLLLPDAENNKSILMLGAMKDIVKKQSTQFSGGPTEDTEKFLTLMKMPVISFVRLGYCSFSKSRILNTLLSPAQLKLHKIFLHQDLPLLVLPRQISDGLVEITWCFPDSDDRKENPFFQKPVALANLRGNLESFWTQFGFLMEVSSAVFFFTDCLGEKEWDLLMFLGEAAIERCYFVLSSQARESEEAQIFQRILNLKPAQLLFWERGDAGDRRKNMEGLQAALQEVMFSSCLRCVSVEDMAALARELGIQVDEDFENTQRIQVSSGENMAGTAEGEGQQRHSQLKSSSKSQALMPIQEPGTQCELSQNLQNLYGTPVFRPVLENSWLFPTRIGGNFNHVSLKASWVMGRPFGSEQRPKWFHPLPFQNAGAQGRGKSFGIQSFHPQIFYSGERFMKFSRVARGCHSNGTFGRLPRPICQHVQACPERPQMMGTLERSRAVASKIGHSYSLDSQPARAVGKPWPQQACTRVTELTEATGKLIRTSHIGKPHPQSFQPAAATQKLRPASQQGVQMKTQGGASNPALQIGSHPMCKSSQFKSDQSNPSTVKHSQPKPFHSVPSQPKSSQTKSCQSQPSQTKPSPCKSTQPKPSQPWPPQSKPSQPRPPQPKSSSTNPSQAKAHHSKAGQKRGGKH

Variants of: B1
Conditions: with ripk2_human RIPK2, O43353
ripk2_human RIPK2, O43353, sequence (O43353 whole entry): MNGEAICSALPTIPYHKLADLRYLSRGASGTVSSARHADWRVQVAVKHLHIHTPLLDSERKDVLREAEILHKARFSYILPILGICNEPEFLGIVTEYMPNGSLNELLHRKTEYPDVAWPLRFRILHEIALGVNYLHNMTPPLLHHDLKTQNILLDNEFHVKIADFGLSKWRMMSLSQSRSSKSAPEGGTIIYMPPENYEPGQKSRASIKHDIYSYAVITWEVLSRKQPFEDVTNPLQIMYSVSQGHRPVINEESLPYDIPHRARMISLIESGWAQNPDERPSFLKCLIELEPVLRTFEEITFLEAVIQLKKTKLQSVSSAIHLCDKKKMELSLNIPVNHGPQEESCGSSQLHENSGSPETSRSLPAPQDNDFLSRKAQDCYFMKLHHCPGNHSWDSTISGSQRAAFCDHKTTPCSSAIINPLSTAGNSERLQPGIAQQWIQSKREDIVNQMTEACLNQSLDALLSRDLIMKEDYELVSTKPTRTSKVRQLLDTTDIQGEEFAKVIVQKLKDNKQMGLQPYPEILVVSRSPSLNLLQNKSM

Row | effect of a mutation on the interaction | Variant
1 | increasing interaction strength | L30R;D31N;L33R
